In patent US12012457 (SYNTHEKINE, dated 2024):
Where a chain is given by its changes, count along the chain named. Values belong to the binder of their own block, whether it stands above or below them.

Legend:
[1] = target: T1, extracellular domain of human IL23R (hIL23R ECD) (human, UniProt Q5VWK5 24-355); assay: periplasmic extract ELISA (PE-ELISA), 96-well plate, colorimetric
T1 construct: also called hIL-23 ECD antigen
T1 sequence: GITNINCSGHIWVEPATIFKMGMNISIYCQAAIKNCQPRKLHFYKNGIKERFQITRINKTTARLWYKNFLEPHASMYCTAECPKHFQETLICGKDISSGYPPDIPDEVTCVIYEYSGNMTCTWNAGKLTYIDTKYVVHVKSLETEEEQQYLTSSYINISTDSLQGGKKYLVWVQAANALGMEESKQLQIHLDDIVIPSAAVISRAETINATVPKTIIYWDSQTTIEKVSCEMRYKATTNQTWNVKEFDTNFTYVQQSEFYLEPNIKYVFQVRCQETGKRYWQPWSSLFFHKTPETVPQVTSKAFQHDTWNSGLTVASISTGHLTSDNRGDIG

[2] = target: T2, extracellular domain of mouse IL23R (mIL23R ECD) (mouse, UniProt Q8K4B4 24-374); assay: as above
T2 construct: also called mIL-23 ECD antigen
T2 sequence: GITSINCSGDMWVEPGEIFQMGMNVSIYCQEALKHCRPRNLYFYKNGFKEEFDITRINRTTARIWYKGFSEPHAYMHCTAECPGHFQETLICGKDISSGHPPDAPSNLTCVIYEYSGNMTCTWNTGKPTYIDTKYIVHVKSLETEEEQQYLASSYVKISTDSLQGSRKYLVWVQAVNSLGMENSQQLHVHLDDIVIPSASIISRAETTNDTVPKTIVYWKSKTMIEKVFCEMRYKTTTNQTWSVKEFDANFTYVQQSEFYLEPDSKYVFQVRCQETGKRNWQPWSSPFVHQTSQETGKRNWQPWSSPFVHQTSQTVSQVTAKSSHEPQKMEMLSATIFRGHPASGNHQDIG

binding result [1]: binds
B9: hIL23R VHH18 (VHH)
VHH: QVQLQESGGGSVQAGGSLRLACAASGYTYCNYDIAWYRQAPGKERKFVSAIASDGSTSYADSVKGRFTISQDNAKNTVYLQMNSLKPEDTAMYYCKTDPIATMTRRCDPYWGQGTQVTVSS

binding result [1]: binds
B10: hIL23R VHH11 (VHH)
VHH: B9 VHH with A21S, N31S, I34M, A35T, E44K, K46E, A52D, M103I, T104S, P109S

binding result [1]: binds
B11: hIL23R VHH7 (VHH)
VHH: B9 VHH with A21S, S56I, A101S, M103I, R106I

binding result [1]: binds
B12: hIL23R VHH3 (VHH)
VHH: QVQLQESGGGSVQAGESLRLSCAASGYTYCTYDMTWYRQAPGKKREFVSGIHSDGTTSYADSVKGRFTISQDNAENTVYLQMNSLKPEDTAMYYCKTDPIATITRRCDSYWGQGTQVTVSS

binding result [1]: binds
B14: hIL23R VHH14 (VHH)
VHH: QVQLQESGGGLVQPGGSLRLSCAASGYTYCSYDMKWYRQAPGKKREFVSAIDSDGSTSYADSVKGRFTISQDNAKNTVYLQMNSLKPEDTAMYYCKTEGTVPVGVCPNYWGQGTQVTVSS

binding result [1]: binds
B15: hIL23R VHH8 (VHH)
VHH: B14 VHH with G10D, L11S, P14A, K44E, A50G, T57I, V101I, V105A

binding result [1]: binds
B17: hIL23R VHH9 (VHH)
VHH: QVQLQESGGGLVQAGGSLRLSCAASGYTYCSYDMSWYRQAPGKERKFVSSINSDGTTSYADSVKGRFTISQDNAKNTVYLQMNSLKPEDTAMYYCKTDPQTRPGKPCADYWGQGTQVTVSS

binding result [1]: binds
B18: hIL23R VHH12 (VHH)
VHH: QVQLQESGGGSVQAGGSLRLSCAASGYTSSSRCMGWFRQAPGKEREGVARIYTPTRTTWYADSVKGRFTISQDNAKNTVYLEMASLKPEDTAKYFCAAGASCAVDLFSYWGQGTQVTVSS

binding result [1]: binds
B20: hIL23R VHH5 (VHH)
VHH: QVQLQESGGGSVQAGGSLRLSCAASGYTYCSYDMSWYRQAPGKKREFVSAIASDGSTSYADSLKGRFTISQDNAKNTVYLQMNSLKPEDTAMYYCKTDPHVQSSGGYCPPYWGQGTQVTVSS

The remaining lines, values behind:

B1: hIL23R VHH19 (VHH)
VHH: QVQLQESGGGSVQAGGSLRLSCAASGYTSCSYDMSWYRQAPGKKREFVSAIHSDGTTSYADSMKGRFTISQDNAKNTVYLQMNSLKPEDTAMYYCKTDPNYSDHVCPPYWGRGTQVTVSS
binding result [1]: binds

B2: hIL23R VHH15 (VHH)
VHH: QVQLQESGGGSVQAGGSLRLSCAASPGTYTSRYMGWFRQAPGKEREGVATIWPAGGNTVYADSVKGRFTISQDGAKKTVYLQMNSLKPEDTAMYYCAAAKYGGTSLAPYTYNYWGQGTQVTVSS
binding result [1]: binds

B3: hIL23R VHH17 (VHH)
VHH: QVQLQESGGGSVQAGGSLRLSCTASGYTFSTMKYMGWFRQAPGKEREGVAAIWIAAGNTYYADSVKGRFTISQDNTKNTVYLQMNSLKPEDTALYYCAAARYGFVPSTWYLPERYNYWGQGTQVTVSS
binding result [1]: binds

B4: mIL23R VHH41 (VHH)
VHH: QVQLQESGGGLVQPGGSLRLTCAASGFTFSTSAMTWVRQAPGKGLDWVSGIDSGGTTVYADSVKGRFTISKDNAKNTLYLQMNSLKTEDTAVYYCATGLPWGNTWRTRGQGTQVTVSS
binding result [2]: binds

B5: hIL23R VHH2 (VHH)
VHH: QVQLQESGGGSVQAGGSLRLSCAASGYTYCSYDMSWYRQAPGKKREFVSSFNSDGSTSYADSVKGRFTISQDNAKNTVYLQMNSLKPEDTAMYYCKTDPHADWGAPCGGDYWGQGTQVTVSS
binding result [1]: binds

B6: hIL23R VHH4 (VHH)
VHH: B5 VHH with Y27S, S31T, S35T, K44R, S50A, F51I, H100N, A101S, D102G
binding result [1]: binds

B7: hIL23R VHH10 (VHH)
VHH: B9 VHH with R19K, A21S
binding result [1]: binds

B8: hIL23R VHH16 (VHH)
VHH: B9 VHH with Q13E, S17A, R19T, A21S, A23V
binding result [1]: binds

B13: hIL23R VHH13 (VHH)
VHH: B14 VHH with L11S, P14A, V101I
binding result [1]: binds

B16: hIL23R VHH6 (VHH)
VHH: B17 VHH with A14P, S35G, E44K
binding result [1]: binds

B19: hIL23R VHH1 (VHH)
VHH: B20 VHH with I51F, A52N, S56T, L63V, N73K
binding result [1]: binds
